Test results taken from publication PMC5658516 (Cell Chemical Biology, 2017).

Target: T1, His10-Ub-Ub WT (UniProt P0CG48 1-76; P0CG48 1-76)
T1 construct: ubiquitin, distal moiety; ubiquitin, proximal moiety; two ubiquitins head to tail on one chain; also called linear diUb; M1-linked diUb; source: E. coli BL21-CodonPlus (DE3)-RIPL, purified (HisTrap, desalting); not shown: His10, N-terminal, kept
Test: pull-down; 20 μg OTULINcat-ST with equimolar His10-diUb in PBS, 0.1% BSA, 5% glycerol, 0.1% Triton-X, 2 h 4 °C; OTULINcat-ST held on Strep-Tactin Sepharose, eight washes with 0.5% Triton-X; western blot
Settings: both partners purified

B1: OTULINcat-Strep-tag II C129A (domain or fragment, UniProt Q96BN8 80-352, looked up)
chain: LSVAPEMDIMDYCKKEWRGNTQKATCMKMGYEEVSQKFTSIRRVRGDNYAALRATLFQAMSQAVGLPPWLQDPELMLLPEKLISKYNWIKQWKLGLKFDGKNEDLVDKIKESLTLLRKKWAGLAEMRTAEARQIACDELFTNEAEEYSLYEAVKFLMLNRAIELYNDKEKGKEVPFFSVLLFARDTSNDPGQLLRNHLNQVGHTGGLEQVEMFLLAYAVRHTIQVYRLSKYNTEEFITVYPTDPPKDWPVVTLIAEDDRHYNIPVRVCEETSL
notes: also called OTULINcat C129A; OTULIN C129A; source: E. coli BL21-CodonPlus (DE3)-RIPL, purified (StrepTrap, desalting); not shown: Strep-tag II, C-terminal, kept
Q: Does B1 bind?
A: Result: binds
